PMC5589798, “Alpha subunit-dependent glycine receptor clustering and regulation of synaptic receptor numbers” (Scientific Reports, 2017)

Legend:
[1] = target: endogenous α subunits of spinal cord neurons; test: PALM-based single molecule counting; fixed lentivirus-infected spinal cord neurons; bursts of Dendra2 detections counted in 120 nm clusters in sparse areas of the extrasynaptic plasma membrane, binomial fit
[2] = target: the molecule itself; test: PALM-based single molecule counting; fixed COS-7 cells expressing mEos2-gephyrin; cluster diameter 150 nm, burst length < 60 s, binomial fit
[3] = target: T1, endogenous extrasynaptic GlyRs (labelled by QDs on endogenous GlyRα1) (mouse (endogenous in spinal cord …, UniProt Q64018 29-457; P48168 23-496); test: PALM-based single molecule counting at QD-labelled receptors; fixed mouse spinal cord neurons; endogenous GlyRα1 labelled with mAb2b and Fab'-QD605, mEos2-gephyrin bursts counted at the QD sites in the extrasynaptic membrane; conditions: partners not purified
T1 construct: endogenous glycine receptor beta subunit of mouse spinal cord neurons; the discussion calls extrasynaptic GlyRs α3:β2 heteromers; Only the α1 subunit was labelled; also called endogenous GlyRs; receptor complexes; source: endogenous, mouse spinal cord neurons, fixed cells; copies: 3 + 2
T1 sequence (P48168 23-496, one chain of several): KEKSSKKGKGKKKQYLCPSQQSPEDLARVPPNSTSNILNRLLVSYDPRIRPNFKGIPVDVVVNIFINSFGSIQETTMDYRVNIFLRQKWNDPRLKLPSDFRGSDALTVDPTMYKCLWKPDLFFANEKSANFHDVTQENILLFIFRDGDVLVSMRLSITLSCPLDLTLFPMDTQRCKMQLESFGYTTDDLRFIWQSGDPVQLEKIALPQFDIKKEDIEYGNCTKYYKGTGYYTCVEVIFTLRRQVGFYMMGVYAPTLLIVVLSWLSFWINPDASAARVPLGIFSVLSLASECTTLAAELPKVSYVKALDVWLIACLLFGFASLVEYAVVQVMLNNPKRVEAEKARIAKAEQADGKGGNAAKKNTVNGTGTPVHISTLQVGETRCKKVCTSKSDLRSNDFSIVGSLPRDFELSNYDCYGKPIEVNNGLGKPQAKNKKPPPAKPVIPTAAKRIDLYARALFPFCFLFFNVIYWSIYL

untagged GlyRβ = target: T2, untagged GlyRβ (UniProt P48167 23-497); test: PALM-based single molecule counting; fixed transfected COS-7 cells; bursts of Dendra2 detections counted in 120 nm clusters, binomial fit; Dendra2-GlyR subunits alone or with untagged subunits; conditions: partners not purified
T2 construct: glycine receptor beta subunit, untagged; also called untagged β subunits; non-fluorescent subunits; source: COS-7, transfected, in cells
T2 sequence (P48167 23-497): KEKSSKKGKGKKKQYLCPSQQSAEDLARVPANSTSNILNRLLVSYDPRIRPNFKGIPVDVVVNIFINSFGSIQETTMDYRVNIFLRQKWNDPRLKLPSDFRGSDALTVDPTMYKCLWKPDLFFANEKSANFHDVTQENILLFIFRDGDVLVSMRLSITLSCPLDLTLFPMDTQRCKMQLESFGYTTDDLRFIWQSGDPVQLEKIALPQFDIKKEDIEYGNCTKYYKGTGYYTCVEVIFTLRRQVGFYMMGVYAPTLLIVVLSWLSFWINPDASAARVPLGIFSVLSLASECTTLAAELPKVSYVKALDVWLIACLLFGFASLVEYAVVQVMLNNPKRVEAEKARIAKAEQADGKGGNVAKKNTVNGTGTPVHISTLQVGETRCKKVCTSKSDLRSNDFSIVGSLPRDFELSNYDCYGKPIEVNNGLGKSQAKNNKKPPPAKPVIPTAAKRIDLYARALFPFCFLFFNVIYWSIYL

[4] = target: T3, endogenous GlyRβ subunits of spinal cord neurons ( (endogenous in rat or mouse …, UniProt P20781 23-496)); test: PALM-based single molecule counting; fixed lentivirus-infected spinal cord neurons; bursts of Dendra2 detections counted in 120 nm clusters in sparse areas of the extrasynaptic plasma membrane, binomial fit; conditions: partners not purified
T3 construct: endogenous glycine receptor beta subunit of cultured spinal cord neurons; also called endogenous counterparts; source: endogenous, cultured spinal cord neurons, fixed cells
T3 sequence (P20781 23-496): as the sequence (P48168 23-496, one chain of several) above, with P23A counted along it

## Dendra2-GlyRβ (FU-SP-myc-Dendra2-GlyRβ) (from UniProt P48167-1 23-497) (receptor)
[1]
  stoichiometry N: 1.5 α:β (3:2)

B1: mEos2-gephyrin (FU-mEos2-gephyrin) (natural protein, UniProt Q03555 1-768, looked up)
chain: MATEGMILTNHDHQIRVGVLTVSDSCFRNLAEDRSGINLKDLVQDPSLLGGTISAYKIVPDEIEEIKETLIDWCDEKELNLILTTGGTGFAPRDVTPEKFPTFPFCGLQKGATKEVIEREAPGMALAMLMGSLNVTPLGMLSRPVCGIRGKTLIINLPGSKKGSQECFQFILPALPHAIDLLRDAIVKVKEVHDELEDLPSPPPPLSPPPTTSPHKQTEDKGVQCEEEEEEKKDSGVASTEDSSSSHITAAALAAKIPDSIISRGVQVLPRDTASLSTTPSESPRAQATSRLSTASCPTPKQIRRPDESKGVASRVGSLKVQSRCSSKENILRASHSAVDITKVARRHRMSPFPLTSMDKAFITVLEMTPVLGTEIINYRDGMGRVLAQDVYAKDNLPPFPASVKDGYAVRAADGPGDRFIIGESQAGEQPTQTVMPGQVMRVTTGAPIPCGADAVVQVEDTELIRESDDGTEELEVRILVQARPGQDIRPIGHDIKRGECVLAKGTHMGPSEIGLLATVGVTEVEVNKFPVVAVMSTGNELLNPEDDLLPGKIRDSNRSTLLATIQEHGYPTINLGIVGDNPDDLLNALNEGISRADVIITSGGVSMGEKDYLKQVLDIDLHAQIHFGRVFMKPGLPTTFATLDIDGVRKIIFALPGNPVSAVVTCNLFVVPALRKMQGILDPRPTIIKARLSCDVKLDPRPEYHRCILTWHHQEPLPWAQSTGNQMSSRLMSMRSANGLLMLPPKTEQYVELHKGEVVDVMVIGRL
notes: gephyrin; neither species nor isoform is stated; In neurons, endogenous gephyrin is also present and dilutes the detected mEos2-gephyrin; source: COS-7, transfected, in cells; spinal cord neurons, lentivirus infected, in cells
[2]
  stoichiometry N: 3
[3]
  stoichiometry N: 1 gephyrin trimer per receptor complex

B2: Dendra2-GlyRα3 (FU-SP-myc-Dendra2-GlyRα3L) (receptor, human, UniProt O75311-1 34-464, looked up)
chain: ARSRSAPMSPSDFLDKLMGRTSGYDARIRPNFKGPPVNVTCNIFINSFGSIAETTMDYRVNIFLRQKWNDPRLAYSEYPDDSLDLDPSMLDSIWKPDLFFANEKGANFHEVTTDNKLLRIFKNGNVLYSIRLTLTLSCPMDLKNFPMDVQTCIMQLESFGYTMNDLIFEWQDEAPVQVAEGLTLPQFLLKEEKDLRYCTKHYNTGKFTCIEVRFHLERQMGYYLIQMYIPSLLIVILSWVSFWINMDAAPARVALGITTVLTMTTQSSGSRASLPKVSYVKAIDIWMAVCLLFVFSALLEYAAVNFVSRQHKELLRFRRKRKNKTEAFALEKFYRFSDMDDEVRESRFSFTAYGMGPCLQAKDGMTPKGPNHPVQVMPKSPDEMRKVFIDRAKKIDTISRACFPLAFLIFNIFYWVIYKILRHEDIHQQQD
notes: human glycine receptor alpha-3 subunit, long isoform (α3L); Five copies hold for the homomeric receptor (expressed alone in COS-7); also called homomeric Dendra2-GlyRα3; source: COS-7, transfected (FuGENE 6), in cells; spinal cord neurons, lentivirus infected, in cells; not shown: myc, N-terminal, kept; Dendra2, N-terminal, kept
Untagged GlyRβ
  stoichiometry N: 3 α3 subunits per complex
[4]
  stoichiometry N: 1.5 α:β (3:2)

B3: Dendra2-GlyRα1 (FU-SP-myc-Dendra2-GlyRα1) (receptor, rat, UniProt P07727-1 29-457, looked up)
chain: ARSAPKPMSPSDFLDKLMGRTSGYDARIRPNFKGPPVNVSCNIFINSFGSIAETTMDYRVNIFLRQQWNDPRLAYNEYPDDSLDLDPSMLDSIWKPDLFFANEKGAHFHEITTDNKLLRISRNGNVLYSIRITLTLACPMDLKNFPMDVQTCIMQLESFGYTMNDLIFEWQEQGAVQVADGLTLPQFILKEEKDLRYCTKHYNTGKFTCIEARFHLERQMGYYLIQMYIPSLLIVILSWISFWINMDAAPARVGLGITTVLTMTTQSSGSRASLPKVSYVKAIDIWMAVCLLFVFSALLEYAAVNFVSRQHKELLRFRRKRRHHKSPMLNLFQDDEGGEGRFNFSAYGMGPACLQAKDGISVKGANNNNTTNPAPAPSKSPEEMRKLFIQRAKKIDKISRIGFPMAFLIFNMFYWIIYKIVRREDVHNK
notes: rat glycine receptor alpha-1 subunit, isoform a; Five copies hold for the homomeric receptor (expressed alone in COS-7); also called homomeric Dendra2-GlyRα1; source: COS-7, transfected (FuGENE 6), in cells; spinal cord neurons, lentivirus infected, in cells; not shown: myc, N-terminal, kept; Dendra2, N-terminal, kept
[4]
  stoichiometry N: 1.5 α:β (3:2)
